Where two headings read alike, the source gives them in different places.
Key:
[1] = target: T1, truncated hTfR1 of SEQ ID NO:122 (human, UniProt P02786 122-760); assay: SPR, TfR1 amine-coupled, Fab injected, 1:1 fit
T1 construct: also called human TfR1; Human TfR1
Method: (§1) Binding of the purified Fabs to human and cynomolgus TfR1 was evaluated using either SPR (FIG. 44) or indirect ELISA (FIG. 45). For SPR, a Biacore 8K instrument (Cytiva) was used. […] The Fabs were injected over the chip using a 2-fold dilution series in four steps starting at 100 nM. The interaction was measured using the single cycle kinetics method with a contact time of 120 s at a flow rate of 30 μl/min followed by a dissociation time of 1000 s. Regeneration of the surface between cycles was done by injecting 3M MgCl₂. The binding data was fitted to a 1:1 interaction model. The Fabs were diluted in HBS-EP+ (Cytiva, #BR100669). Experiments were performed at 25° C.

[2] = target: T2, truncated cTfR1 of SEQ ID NO:123 (cynomolgus monkey, UniProt Q5RDH6 122-760 (Pongo abelii entry)); assay: SPR (Biacore 8K), single cycle kinetics: cTfR1 amine-coupled on a CM5 chip, Fab injected in a 2-fold series of four steps from 100 nM
T2 construct: also called cynomolgus TfR1
T2 chain: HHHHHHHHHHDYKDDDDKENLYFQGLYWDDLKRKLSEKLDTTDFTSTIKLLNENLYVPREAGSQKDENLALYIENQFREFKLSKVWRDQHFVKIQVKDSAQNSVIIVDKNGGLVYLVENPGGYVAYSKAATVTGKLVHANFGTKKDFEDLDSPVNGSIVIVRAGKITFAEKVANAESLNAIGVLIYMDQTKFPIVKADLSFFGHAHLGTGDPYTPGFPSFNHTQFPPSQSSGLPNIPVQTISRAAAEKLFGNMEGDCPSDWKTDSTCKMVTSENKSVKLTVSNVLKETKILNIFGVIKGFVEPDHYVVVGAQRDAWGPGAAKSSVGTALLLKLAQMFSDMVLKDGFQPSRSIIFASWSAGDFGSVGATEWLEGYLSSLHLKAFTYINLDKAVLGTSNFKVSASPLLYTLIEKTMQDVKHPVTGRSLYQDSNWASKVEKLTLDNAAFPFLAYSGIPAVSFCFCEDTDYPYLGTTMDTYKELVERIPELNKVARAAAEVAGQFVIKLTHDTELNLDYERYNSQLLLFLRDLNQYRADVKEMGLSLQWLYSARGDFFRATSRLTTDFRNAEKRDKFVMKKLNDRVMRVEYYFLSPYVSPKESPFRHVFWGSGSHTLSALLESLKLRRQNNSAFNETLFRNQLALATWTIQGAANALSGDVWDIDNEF
Method: as §1

AβpE3-40 monomer [3] = target: T3, AβpE3-40 monomer (UniProt P05067 674-711, pyroglutamate at position 3 (N-terminal residue)); assay: SPR, antibody immobilised, monomer injected, 1:1 fit
T3 construct: range 3-40 (Aβ numbering); Synthetic peptide (Bachem/Anaspec), verified monomeric by SEC; also called monomeric AβpE3-40
T3 sequence (P05067 674-711): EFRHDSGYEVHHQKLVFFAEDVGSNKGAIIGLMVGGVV
Method: (§2) Single cycle kinetics with the antibodies immobilized on a CM5 chip was used to measure the binding of the antibodies to the AβpE3-40 monomer. For the measurements, 5 μg/ml of analyte antibody was immobilized on the chip. […] Regeneration of the surface between cycles was done by injecting 30 μl 3 M MgCl₂. The binding data was fitted to a 1:1 interaction model.
(§3) In all SPR experiments, 1×HBS-EP+ (Cytiva, cat. no. BR100669) was used to dilute antibodies and target antigens. Experiments were performed at 25° C.

AβpE3-40 monomer [4] = target: T3, AβpE3-40 monomer; assay: as above; remark: listed apart in the source
Method: as §2, §3
(§4) Affinity evaluation and KD determination by surface plasmon resonance: Binding interactions between antigens and antibodies were evaluated by SPR using a Biacore 8K instrument (Cytiva) according to standard procedures.

Aβ1-28 monomer = target: T4, Aβ1-28 monomer (UniProt P05067 672-699); assay: inhibition ELISA, antigen titrated in solution, AβpE3-40 coat
T4 construct: range 1-28 (Aβ numbering)
T4 sequence (P05067 672-699): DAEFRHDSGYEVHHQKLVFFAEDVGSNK
Method: (§5) The humanized antibodies were incubated at a fixed concentration (0.5 μg/ml) with titrating concentrations of the different Aβ antigens. After incubation for 45 min at 900 rpm to reach equilibrium, the antibody-Aβ samples were added to a blocked and washed ELISA plate with an AβpE3-40 coat (0.5 μM). The samples were incubated on the plate for 25 min without shaking followed by washing, incubation with detection antibody, another washing step and finally incubation with alkaline phosphatase substrate.

Aβ2-28 monomer = target: T5, Aβ2-28 monomer (UniProt P05067 673-699); assay: as above
T5 construct: range 2-28 (Aβ numbering)
T5 sequence (P05067 673-699): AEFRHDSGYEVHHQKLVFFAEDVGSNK
Method: as §5

Aβ3-28 monomer [5] = target: T6, Aβ3-28 monomer (UniProt P05067 674-699); assay: as above
T6 construct: range 3-28 (Aβ numbering)
T6 sequence (P05067 674-699): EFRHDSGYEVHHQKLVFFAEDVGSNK
Method: as §5

AβpE3-28 monomer [6] = target: T7, AβpE3-28 monomer (UniProt P05067 674-699, pyroglutamate at position 3 (N-terminal residue)); assay: as above
T7 construct: range 3-28 (Aβ numbering)
Method: as §5

Aβ4-28 monomer = target: T8, Aβ4-28 monomer (UniProt P05067 675-699); assay: as above
T8 construct: range 4-28 (Aβ numbering)
T8 sequence (P05067 675-699): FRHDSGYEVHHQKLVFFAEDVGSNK
Method: as §5

Aβ5-28 monomer = target: T9, Aβ5-28 monomer (UniProt P05067 676-699); assay: as above
T9 construct: range 5-28 (Aβ numbering)
T9 sequence (P05067 676-699): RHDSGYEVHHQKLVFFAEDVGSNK
Method: as §5

AβpE11-28 monomer = target: T10, AβpE11-28 monomer (UniProt P05067 682-699, pyroglutamate at position 11 (N-terminal residue)); assay: as above
T10 construct: range 11-28 (Aβ numbering)
T10 peptide (looked up): EVHHQKLVFFAEDVGSNK
Method: as §5

AβpE3-40 monomer [7] = target: T3, AβpE3-40 monomer; assay: as above
Method: as §5, with “concentration (0.1” for “concentration (0.5”

Aβ1-40 monomer [8] = target: T11, Aβ1-40 monomer (UniProt P05067 672-711); assay: as above
T11 construct: range 1-40 (Aβ numbering)
T11 sequence (P05067 672-711): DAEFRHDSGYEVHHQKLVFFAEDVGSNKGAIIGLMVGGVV
Method: as §5, with “concentration (0.1” for “concentration (0.5”

AβpE3-42 protofibrils [9] = target: T12, AβpE3-42 protofibrils (UniProt P05067 674-713, pyroglutamate at position 3 (N-terminal residue)); assay: as above
T12 construct: range 3-42 (Aβ numbering); Soluble aggregates made from AβpE3-42 peptide, purified in the void peak of SEC; also called AβpE3-42 PF
T12 sequence (P05067 674-713): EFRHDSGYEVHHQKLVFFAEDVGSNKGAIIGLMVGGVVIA
Method: as §5, with “concentration (0.1” for “concentration (0.5”

Aβ1-42 protofibrils [10] = target: T13, Aβ1-42 protofibrils (UniProt P05067 672-713); assay: as above
T13 construct: range 1-42 (Aβ numbering); Soluble aggregates made from Aβ1-42 monomer
T13 sequence (P05067 672-713): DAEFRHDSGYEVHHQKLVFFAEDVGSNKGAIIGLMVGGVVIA
Method: as §5, with “concentration (0.1” for “concentration (0.5”

Aβ3-28 monomer [11] = target: T6, Aβ3-28 monomer; assay: as above; remark: listed apart in the source
Method: as §5

AβpE3-28 monomer [12] = target: T7, AβpE3-28 monomer; assay: as above; remark: listed apart in the source
Method: as §5

AβpE3-40 monomer [13] = target: T3, AβpE3-40 monomer; assay: as above; remark: listed apart in the source
Aβ1-40 monomer [14] = target: T11, Aβ1-40 monomer; assay: as above; remark: listed apart in the source
AβpE3-42 protofibrils [15] = target: T12, AβpE3-42 protofibrils; assay: as above; remark: listed apart in the source
Aβ1-42 protofibrils [16] = target: T13, Aβ1-42 protofibrils; assay: as above; remark: listed apart in the source
AβpE3-42 protofibrils [17] = target: T12, AβpE3-42 protofibrils; assay: SPR, protofibrils immobilised, antibody injected, 1:1 fit, apparent
Method: (§6) Single cycle kinetics was also used to measure binding of the antibodies to AβpE3-42 protofibrils. […] Regeneration of the surface between cycles was done by injecting 30 μl 10 mM glycine-HCl pH 1.7. The binding data was fitted to a 1:1 interaction model.
as §3

AβpE3-42 protofibrils [18] = target: T12, AβpE3-42 protofibrils; assay: as above; remark: listed apart in the source
Method: as §6, §3, §4

AβpE3-42 protofibrils [19] = target: T12, AβpE3-42 protofibrils; assay: SPR, protofibrils immobilised, antibody injected, 1:1 fit, apparent; Table 10; apparent KD on AβpE3-42 protofibrils
Method: as §6, §3

AβpE3-40 monomer [20] = target: T3, AβpE3-40 monomer; assay: cell-based or functional assay
AβpE3-40 monomer [21] = target: T3, AβpE3-40 monomer; assay: SPR, antibody immobilised, monomer injected, 1:1 fit; remark: listed apart in the source
Method: as §2, with “binding molecules” for “antibodies”, “measure” for “measure the”, “binding” for “binding of the antibodies”, “binding molecule” for “antibody”, “MgCl₂ (Cytiva, cat. No. 29234600).” for “MgCl₂.”

AβpE3-40 monomer [22] = target: T3, AβpE3-40 monomer; assay: inhibition ELISA, antigen titrated in solution, AβpE3-40 coat; remark: listed apart in the source
Method: as §5, with “The tested molecules” for “The humanized antibodies”, “concentration (0.1” for “concentration (0.5”, “different AβpE3” for “different Aβ”, “the” for “the antibody-Aβ”

AβpE3-42 protofibrils [23] = target: T12, AβpE3-42 protofibrils; assay: as above; remark: listed apart in the source
Method: as §5, with “The tested molecules” for “The humanized antibodies”, “concentration (0.1” for “concentration (0.5”, “different AβpE3” for “different Aβ”, “the” for “the antibody-Aβ”

hTfR1 on cell surfaces = target: T14, hTfR1 on cell surfaces (human, UniProt P02786 1-760); assay: flow cytometry on Fc-blocked K562 cells, 1 h at 4°C, detection with PE anti-human IgG Fc
T14 construct: Endogenous receptor on human cell lines; also called endogenous hTfR1 on hCMEC/D3, THP-1 and K562 cells; CD71
Method: Cells were washed twice with staining buffer to remove unbound molecules and then fixed for 15 min at 4° C. with 4% methanol-free PFA (ThermoScientific, #J61899.AP). After fixation, cells were washed once with staining buffer. […] Cells were then washed twice prior to acquisition on a Flow cytometer (BD Symphony A1 or BD Lyric). Samples were analyzed using FlowJo software (BD) and the mean fluorescence intensity of bound test compound was plotted against concentration.

T1 sequence (P02786 other isoform, or with tags, fused parts or gaps limits assumed): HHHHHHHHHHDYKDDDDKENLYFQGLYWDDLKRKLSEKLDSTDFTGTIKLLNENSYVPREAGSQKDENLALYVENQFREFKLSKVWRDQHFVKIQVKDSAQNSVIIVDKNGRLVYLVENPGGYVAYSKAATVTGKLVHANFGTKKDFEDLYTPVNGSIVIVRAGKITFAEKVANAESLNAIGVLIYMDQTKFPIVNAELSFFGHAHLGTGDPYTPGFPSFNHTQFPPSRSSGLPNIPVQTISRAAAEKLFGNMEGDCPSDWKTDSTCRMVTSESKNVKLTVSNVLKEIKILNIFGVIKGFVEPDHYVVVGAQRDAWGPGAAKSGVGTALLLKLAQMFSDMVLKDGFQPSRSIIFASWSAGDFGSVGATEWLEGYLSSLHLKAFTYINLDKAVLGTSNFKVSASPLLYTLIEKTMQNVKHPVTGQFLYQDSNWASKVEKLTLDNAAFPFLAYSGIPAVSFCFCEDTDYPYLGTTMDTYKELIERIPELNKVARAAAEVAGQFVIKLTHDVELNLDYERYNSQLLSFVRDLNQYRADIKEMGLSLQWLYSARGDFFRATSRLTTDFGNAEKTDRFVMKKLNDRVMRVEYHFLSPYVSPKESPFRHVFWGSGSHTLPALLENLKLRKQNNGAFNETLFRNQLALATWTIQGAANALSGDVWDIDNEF

B1: h26D3 variant LC5 Fab (Fab, V domains shown)
VH: EVQLVQSGAEVKKPGSSVKVSCKASGYIFTDYNMDWVRQAPGQGLEWIGDINPDYDTTSYNEKFKGRATLTVDKSTSTAYMELSSLRSEDTAVYYCARGGYSGSSYYHPMDYWGQGTLVTVSS
VL: DIQMTQSPSSVSASVGDRVTITCKSSQSLLYSTNQKNYLAWYQQKPGKAPKLLIYWASTRESGVPSRFSGSGSGTDFTLTISSLQPEDFATYYCQQAFIYPRTFGQGTKVEIK
notes: Single-mutant His-tagged Fab; also called Y97A
Kd [1]: 240 nM
binding result [2]: binds

B2: H2L7 (antibody, human IgG1, kappa, V domains shown)
VH: EVQLVQSGAEVKKPGASVRLSCKASGYSFTGFTMNWVRQALGQGLEWMGLINPYNGVTTYNQKFKGRLTMTRDMSTRTVYMDLSSLRYEDTAVYYCTREGNWEGVYWGQGTLVTVSS
VL: EIVLTQSPLSLSVTLGQSASISCRSSQSLLDSNGKTYLHWFILRPGQSPRRLIYLVSILDSGVPDRFSGSGSGTDFTLKISRVEAEDVGVYYCVQGTHFPFTFGSGTKLEIKR
notes: Humanized IgG1/kappa, expressed in CHO cells; also called humanized Pyr12.2 variant H2L7; VH2/VL7
Kd (AβpE3-40 monomer [3]): 2.54 nM
koff (AβpE3-40 monomer [3]): 0.000125 s⁻¹
kon (AβpE3-40 monomer [3]): 50500 M⁻¹ s⁻¹
Kd (AβpE3-40 monomer [4]): 2.54 nM
koff (AβpE3-40 monomer [4]): 0.000125 s⁻¹
kon (AβpE3-40 monomer [4]): 50500 M⁻¹ s⁻¹
IC50 (Aβ1-28 monomer): > 12500 nM
IC50 (Aβ2-28 monomer): > 12500 nM
IC50 (Aβ3-28 monomer [5]): 1870 nM
IC50 (AβpE3-28 monomer [6]): 5.5 nM
IC50 (Aβ4-28 monomer): > 12500 nM
IC50 (Aβ5-28 monomer): > 12500 nM
IC50 (AβpE11-28 monomer): > 12500 nM
IC50 (AβpE3-40 monomer [7]): 2.6 nM
IC50 (Aβ1-40 monomer [8]): > 12500 nM
IC50 (AβpE3-42 protofibrils [9]): 2.5 nM
IC50 (Aβ1-42 protofibrils [10]): > 500 nM
IC50 (Aβ3-28 monomer [11]): 2350 nM
IC50 (AβpE3-28 monomer [12]): 3.6 nM
IC50 (AβpE3-40 monomer [13]): 2.35 nM
IC50 (Aβ1-40 monomer [14]): > 500 nM
IC50 (AβpE3-42 protofibrils [15]): 3 nM
IC50 (Aβ1-42 protofibrils [16]): > 132 nM
koff (AβpE3-42 protofibrils [17]): 1.79e-05 s⁻¹
kon (AβpE3-42 protofibrils [17]): 107000 M⁻¹ s⁻¹
koff (AβpE3-42 protofibrils [18]): 1.79e-05 s⁻¹
kon (AβpE3-42 protofibrils [18]): 107000 M⁻¹ s⁻¹
Kd (AβpE3-42 protofibrils [19]): 0.173 nM

B3: BA003 (antibody, human IgG1, kappa)
light: EIVLTQSPLSLSVTLGQSASISCRSSQSLLDSNGKTYLHWFILRPGQSPRRLIYLVSILDSGVPDRFSGSGSGTDFTLKISRVEAEDVGVYYCVQGTHFPFTFGSGTKLEIKRTVAAPSVFIFPPSDEQLKSGTASVVCLLNNFYPREAKVQWKVDNALQSGNSQESVTEQDSKDSTYSLSSTLTLSKADYEKHKVYACEVTHQGLSSPVTKSFNRGEC
heavy: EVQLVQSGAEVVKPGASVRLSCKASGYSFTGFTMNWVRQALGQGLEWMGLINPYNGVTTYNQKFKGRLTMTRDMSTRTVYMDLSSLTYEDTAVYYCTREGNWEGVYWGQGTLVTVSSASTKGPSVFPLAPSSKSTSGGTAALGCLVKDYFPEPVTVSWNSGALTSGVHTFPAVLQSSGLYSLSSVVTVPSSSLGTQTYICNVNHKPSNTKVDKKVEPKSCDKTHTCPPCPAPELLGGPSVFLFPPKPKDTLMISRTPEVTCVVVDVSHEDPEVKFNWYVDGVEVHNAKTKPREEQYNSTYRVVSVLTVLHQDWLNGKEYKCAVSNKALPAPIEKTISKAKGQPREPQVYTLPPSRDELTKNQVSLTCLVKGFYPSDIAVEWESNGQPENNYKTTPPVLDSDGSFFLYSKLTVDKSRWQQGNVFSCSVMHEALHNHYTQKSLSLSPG
notes: also called comparator antibody BA003; control antibody BA003
Uptake of AβpE3-40 monomers in THP-1 cells, EC50 (AβpE3-40 monomer [20]): 2.2 nM
Kd (AβpE3-40 monomer [21]): 2.33 nM
koff (AβpE3-40 monomer [21]): 0.000127 s⁻¹
kon (AβpE3-40 monomer [21]): 54600 M⁻¹ s⁻¹
IC50 (AβpE3-40 monomer [22]): 1.1 nM
IC50 (AβpE3-42 protofibrils [23]): 2.2 nM
binding result (hTfR1 on cell surfaces): no binding (tested: 10000 nM)
